For series [1], the system named is human pharyngeal carcinoma cells Detroit-562. Nature of the series: Tumor uptake in animal model of human head and neck cancer (orthotopic), ex vivo optical imaging. To be noted: ex vivo anterior vs posterior tongue, 24 h after i.v. 3 nmol/mouse, H&N tumor bearing mice, n = 5/group. The protocol:
Tumor uptake experiments were performed in an animal model of human head and neck cancer (orthotopic), using Detroit-562 cells, overexpressing in particular integrin receptor αvβ6. Briefly, the human pharyngeal carcinoma cells Detroit-562 (ATCC, CCL-138) were cultured in Eagle's Minimum Essential Medium (EMEM) supplemented with 10% Fetal Bovine Serum (FBS), 2 mM glutamine, 100 IU/mL penicillin, 100 μg/mL streptomycin. Male Balb/c nu/nu mice, 4-6 weeks of age (Charles River Laboratories), underwent orthotopic implantation in the anterior portion of the tongue of about 2.5 million cells suspended in 0.03 mL di EMEM. Mice were housed 4 per cage with food and water ad libitum. Animals were fed with VRF1 (P) sterile diet (Special Diets Services Ltd) up to the end of the acclimation period (5 days). Then, AIN-76a rodent diet irradiated (Research Diets), a special diet that reduces auto-fluorescence, was used up to the end of the experiments. Tumor growth was monitored by longitudinal assessments using a caliper up to the target size of 10-20 mm^3 (7-10 days after cell implantation).
Imaging experiments were performed using the preclinical optical system IVIS Spectrum (Perkin Elmer). Animals were intravenously injected (lateral tail vein) with 3 nmol/mouse, at 24 hours post-administration were euthanized by anesthesia overdose, and the tongues were excised for ex vivo optical imaging. […]

A short description of series [2]: Optical properties: excitation/emission maxima and absolute fluorescence quantum yield. It counts as physicochemical. The method, then: A dual-beam UV-VIS spectrophotometer (Lambda 40, Perkin Elmer) was used to determine the absorbance (Abs) of the compounds of the invention. Emission/excitation (Em/Ex) spectra and absolute fluorescence quantum yield (ϕ) measurements were carried out on a spectrofluorometer (FluoroLog-3 1IHR-320, Horiba Jobin Yvon) equipped with an F-3018 integrating sphere accessory. The measurements were performed using an excitation wavelength at maximum absorbance of different dyes, and the sample was excited with a 450 W Xenon Light Source. Detection was performed by photomultiplier tubes (PMT-NIR) cooled detector or by TBX-04 detector. Dye solutions were carefully prepared to have an absorbance lower than 0.1 (optical densities) to minimize re-absorption phenomena.
The compounds of the invention have been characterized in terms of their optical properties in vitro in aqueous medium (i.e., water/PBS pH 7.4) and in a clinical chemistry control serum (Seronorm, Sero SA), mimicking the chemical composition and optical properties of human serum. All dye or dye-conjugate solutions were freshly prepared. ICG and S0456 were used as commercial references.
In particular, the excitation and emission maxima and the absolute fluorescence quantum yield (Φ) of representative compounds of formula (I) and conjugates of formula (II) are shown in Table II.

Series [3] deals with T1, human serum albumin (HSA) (Homo sapiens, UniProt P02768).
T1 construct: purchased Sigma Aldrich A9511
In words: Binding affinity to human serum albumin (absorbance peak shift or ultrafiltration method). The protocol:
An analysis of the binding affinity of the compounds of the invention to human albumin was carried out and the results compared with ICG and […] as a reference. Binding affinity to human serum albumin (HSA; Sigma Aldrich, A9511) was measured using two methods, according to the level of binding affinity of the compounds. The first method, optimal for compounds which strongly interact with HSA, is based on the analysis of the absorbance spectrum peak shift after the incubation of the dye in solutions containing HSA. […] The measure was performed at the maximum absorbance wavelength of the shifted peak. The second method, optimal for compound with low affinity for HSA, is based on measuring the variation of the absorbance of solutions containing the dye and various concentrations of HSA after ultrafiltration. […] In the first method, ΔA/b corresponds to the absorbance measured for each sample, whereas in the second method ΔA/b is obtained subtracting the absorbance of the control sample (dye without HSA) to the absorbance of each other sample.

Series [4] deals with human colorectal adenocarcinoma cells HT-29. In words: Tumor uptake in animal model of human colorectal cancer (subcutaneous), ex vivo optical imaging. The settings on record: ex vivo tumor-to-muscle, 24 h after i.v. administration, colorectal cancer bearing mice, n = 5/group. The method, then: Tumor uptake experiments were performed in an animal model of human colorectal cancer (subcutaneous), using HT-29 cells, expressing low levels of integrin receptors. Briefly, the human colorectal adenocarcinoma cells HT-29 (ATCC, HTB-38) were cultured in McCoy's 5 A medium supplemented with 10% foetal bovine serum, 2 mM glutamine, 100 IU/mL penicillin and 100 μg/mL streptomycin. Male Athymic nude mice, 4-6 weeks of age (Envigo), underwent subcutaneous implantation (right flank) of about 5 million cells suspended in 0.1 mL of serum-free medium. Mice were housed 4 per cage with food and water ad libitum. […] Then, AIN-76a rodent diet irradiated (Research Diets), a special diet that reduces auto-fluorescence, was used up to the end of the experiments. Tumor growth was monitored by longitudinal assessments using a caliper up to the target size of 300-600 mm^3 (3-4 weeks after cell implantation). […]
In vivo imaging was performed under gas anesthesia (Sevofluorane 6-8% in oxygen). […] Regions of interest (ROIs) were drawn on the excised tumor and healthy reference tissue (muscle) to evaluate signal intensity (expressed as Average Radiant Efficiency). The ratio between the fluorescence signal in the tumor and in the muscle (background tissue) was then calculated to assess the tumor-to-background ratio (TBR).

The subject of series [5] is WM-266-4 human melanoma cells. In words: Cell uptake by FACS in presence of human serum. It counts as cell-based. To be noted: WM-266-4 cells; fluorescence intensity in absence of serum = 100%. The protocol:
The human melanoma cell line WM-266-4 (ATCC, CRL-1676) was used as in vitro model to assess the cell uptake of representative integrin-binding Compounds 1, 2 and 4, based on the high expression of the integrin receptors, particularly αvβ3, on the membrane of these cells (Capasso et al., PlosOne 2014).
Adherent cells at about 70% confluence were incubated with the Compounds 1 or 3 (1 μM) for 2 h at 37° C. (5% CO2) in presence of Dulbecco's Modified Eagle's Medium (DMEM) supplemented with 10% FBS, 2 mM glutamine, 100 IU/mL penicillin and 100 μg/mL streptomycin. […] Fluorescence Activated Cell Sorting (FACS) was used to detect the fluorescence signal within the cells, as measure of cell uptake. Samples were excited with an Argon laser and the emission detected using a 670 nm longpass filter. Values of fluorescence intensity were obtained from the histogram statistic produced by the instrument software.
The residual internalization was calculated by considering the value of fluorescence intensity in absence of the competitor as 100%.
Furthermore, to assess the effect of biological fluids on the cell uptake, parallel experiments were performed incubating the cells with a compounds of the invention in presence of human serum from male AB plasma (Sigma Aldrich, H4522). The residual internalization was calculated by considering the value of fluorescence intensity in absence of the serum as 100%. […]

The target in series [6] is T2, human recombinant integrin αvβ3 (Homo sapiens, UniProt P05106+P06756).
T2 construct: purchased R&D Systems
In words: Receptor binding affinity ELISA (Vitronectin-coated plates). To be noted: duplicate, read-out: Receptor affinity (IC50, nM ± St. Dev.). For orientation: An ELISA detects its analyte on a solid surface through an enzyme-linked reagent.
Experimental: Briefly, 96-well ELISA plates were coated overnight at 4° C. with the extracellular matrix (ECM) protein Vitronectin in carbonate buffer (15 mM Na2CO3, 35 mM NaHCO3, pH 9.6). Each well was then washed with PBS-T-buffer (phosphate-buffered saline/Tween20, 137 mM NaCl, 2.7 mM KCl, 10 mM Na2HPO4, 2 mM KH2PO4, 0.01% Tween20, pH 7.4) and blocked for 1 h at RT with TS-B-buffer (Tris-saline/BSA buffer; 20 mM Tris-HCl, 150 mM NaCl, 1 mM CaCl2, 1 mM MgCl2, 1 mM MnCl2, pH 7.5, 1% BSA). In the meantime, a dilution series of the compound and internal standard was prepared in an extra plate. After washing the assay plate three times with PBS-T, 50 μL of the dilution series were transferred to each well. 50 μL of a solution of human recombinant integrin αvβ3 (R&D Systems, 1 μg/mL) in TS-B-buffer was transferred to the wells and incubated for 1 h. The plate was washed three times with PBS-T buffer, and then primary antibody anti-αvβ3 was added to the plate. After incubation and washing three times with PBS-T, the secondary anti-IgG peroxidase-labeled antibody was added to the plate and incubated for 1 h. After washing the plate three times with PBS-T, the plate was developed by quick addition of 3,3′,5,5′-tetrametylbenzidine (TMB) and incubated for 5 min in the dark. The reaction was stopped with 3 M H2SO4, and the absorbance was measured at 450 nm with a plate reader (Victor3, Perkin Elmer).
The IC50 of the representative Compounds 1, 2 and 4 was tested in duplicate, and the resulting inhibition curves were analyzed using GraphPad Prism version 4.0 for Windows (GraphPad Software). The inflection point defines the IC50 value.

The test system of series [7] is human glioblastoma U87MG cells. In words: Tumor uptake in animal model of human glioblastoma (subcutaneous), ex vivo optical imaging. The settings on record: ex vivo tumor-to-muscle, 24 h after i.v. administration, glioblastoma tumor bearing mice, n = 5/group. The method, then:
Tumor uptake experiments were carried out in an animal model of human glioblastoma (subcutanous) overexpressing the integrin receptors, particularly αvβ3. Briefly, human glioblastoma U87MG cells (ATCC, HTB-14) were cultured in Eagle's Minimum Essential Medium (EMEM) supplemented with 10% Fetal Bovine Serum (FBS), 2 mM glutamine, 100 IU/mL penicillin, 100 μg/mL streptomycin. Male Balb/c nu/nu mice, 4-6 weeks of age (Charles River Laboratories), underwent subcutaneous implantation (right flank) of about 10 million cells suspended in 0.1 mL of EMEM. Mice were housed 4 per cage with food and water ad libitum. Animals were fed with VRF1 (P) sterile diet (Special Diets Services Ltd) up to the end of the acclimation period (5 days). Then, AIN-76a rodent diet irradiated (Research Diets), a special diet that reduces auto-fluorescence, was used up to the end of the experiments. Tumor growth was monitored by longitudinal assessments using a caliper up to the target size of 300-600 mm^3 (3-4 weeks after cell implantation). […] Regions of interest (ROIs) were drawn on the excised tumor and healthy muscle tissues to evaluate signal intensity (expressed as Average Radiant Efficiency). The ratio between the fluorescence signal in the tumor and in the muscle (background tissue) was then calculated to assess the contrast.

Setting [8] is: Seronorm (clinical chemistry control serum).

Three compounds from US11851421B2, “Near-infrared cyanine dyes and conjugates thereof” (BRACCO IMAGING S.P.A., priority 2020, dated 2023) can be followed below.

Usually Kd stands for the equilibrium constant for the complex coming apart. Broadly, the IC50 is the midpoint of a concentration-inhibition curve.

T2 sequence (P06756 31-992 limits assumed): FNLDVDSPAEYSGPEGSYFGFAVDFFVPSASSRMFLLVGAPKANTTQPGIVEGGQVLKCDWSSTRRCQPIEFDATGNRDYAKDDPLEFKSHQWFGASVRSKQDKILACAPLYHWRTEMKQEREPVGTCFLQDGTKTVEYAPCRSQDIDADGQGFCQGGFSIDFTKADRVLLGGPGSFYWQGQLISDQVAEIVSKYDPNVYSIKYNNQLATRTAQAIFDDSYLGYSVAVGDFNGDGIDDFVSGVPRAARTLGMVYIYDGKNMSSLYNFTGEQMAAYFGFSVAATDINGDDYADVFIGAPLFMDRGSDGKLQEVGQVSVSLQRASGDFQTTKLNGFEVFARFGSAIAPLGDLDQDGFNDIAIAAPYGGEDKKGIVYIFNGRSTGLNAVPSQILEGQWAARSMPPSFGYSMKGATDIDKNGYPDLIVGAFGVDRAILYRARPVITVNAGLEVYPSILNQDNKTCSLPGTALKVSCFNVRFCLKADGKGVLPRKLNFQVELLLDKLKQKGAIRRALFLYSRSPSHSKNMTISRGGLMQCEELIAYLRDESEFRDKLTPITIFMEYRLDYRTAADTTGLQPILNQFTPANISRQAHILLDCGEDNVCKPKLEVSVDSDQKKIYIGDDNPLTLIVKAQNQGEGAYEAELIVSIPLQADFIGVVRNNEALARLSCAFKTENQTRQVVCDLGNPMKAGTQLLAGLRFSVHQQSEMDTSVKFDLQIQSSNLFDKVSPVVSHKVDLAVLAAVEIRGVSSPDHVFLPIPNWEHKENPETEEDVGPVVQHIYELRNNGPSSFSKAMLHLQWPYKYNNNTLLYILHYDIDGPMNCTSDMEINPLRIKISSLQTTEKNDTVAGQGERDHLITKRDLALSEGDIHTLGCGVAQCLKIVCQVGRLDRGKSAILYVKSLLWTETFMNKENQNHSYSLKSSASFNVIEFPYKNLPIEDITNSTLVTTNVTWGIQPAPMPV
T2 sequence (P05106 27-718 limits assumed): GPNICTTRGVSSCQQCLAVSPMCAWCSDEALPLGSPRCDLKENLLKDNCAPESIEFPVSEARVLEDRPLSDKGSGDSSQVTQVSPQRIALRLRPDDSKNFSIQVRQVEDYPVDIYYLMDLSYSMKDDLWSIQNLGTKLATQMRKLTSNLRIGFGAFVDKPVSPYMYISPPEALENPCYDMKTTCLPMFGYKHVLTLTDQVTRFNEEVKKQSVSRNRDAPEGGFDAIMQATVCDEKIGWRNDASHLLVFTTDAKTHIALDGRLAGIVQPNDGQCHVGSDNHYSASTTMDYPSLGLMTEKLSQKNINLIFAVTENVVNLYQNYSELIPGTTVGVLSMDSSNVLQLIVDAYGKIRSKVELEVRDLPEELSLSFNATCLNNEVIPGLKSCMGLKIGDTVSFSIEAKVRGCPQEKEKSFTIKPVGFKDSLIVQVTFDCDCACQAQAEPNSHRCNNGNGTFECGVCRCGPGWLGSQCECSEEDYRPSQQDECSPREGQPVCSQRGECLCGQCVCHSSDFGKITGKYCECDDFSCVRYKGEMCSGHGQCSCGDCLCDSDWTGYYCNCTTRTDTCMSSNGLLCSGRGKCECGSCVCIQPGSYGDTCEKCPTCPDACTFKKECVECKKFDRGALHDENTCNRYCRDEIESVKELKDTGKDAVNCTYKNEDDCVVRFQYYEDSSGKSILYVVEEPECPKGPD
T1 sequence (P02768 25-609): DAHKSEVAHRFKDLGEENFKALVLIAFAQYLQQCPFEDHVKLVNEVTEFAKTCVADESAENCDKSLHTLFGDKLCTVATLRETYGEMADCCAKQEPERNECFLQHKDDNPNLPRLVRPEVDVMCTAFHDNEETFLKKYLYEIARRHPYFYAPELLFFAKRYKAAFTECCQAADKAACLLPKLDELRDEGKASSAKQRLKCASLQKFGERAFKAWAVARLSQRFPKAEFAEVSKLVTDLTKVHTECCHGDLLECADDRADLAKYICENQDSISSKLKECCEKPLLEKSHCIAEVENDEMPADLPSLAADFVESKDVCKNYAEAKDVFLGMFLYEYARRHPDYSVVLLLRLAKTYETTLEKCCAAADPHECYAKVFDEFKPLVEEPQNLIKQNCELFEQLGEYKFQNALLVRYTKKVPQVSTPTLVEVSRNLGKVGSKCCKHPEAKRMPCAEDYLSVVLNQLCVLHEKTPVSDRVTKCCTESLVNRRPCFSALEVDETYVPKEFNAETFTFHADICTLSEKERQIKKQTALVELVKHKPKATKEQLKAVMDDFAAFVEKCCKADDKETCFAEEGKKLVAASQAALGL

Consider `CC1(C)C(/C=C/C2=C(Oc3ccc(S(=O)(=O)O)cc3)C(=C/C=C3/N(CCCCCC(=O)NCCCCC4NC(=O)[C@@H](Cc5ccccc5)NC(=O)[C@H](CC(=O)O)NC(=O)CNC(=O)[C@H](CCCNC(=N)N)NC4=O)c4ccc(C(=O)NCC(O)C(O)C(O)C(O)CO)cc4C3(C)C)/CCC2)=[N+](CCCCS(=O)(=O)[O-])c2ccc(C(=O)NCC(O)C(O)C(O)C(O)CO)cc21` (stereo partly shown) [Compound 2], for which the “Tumor-to-background ratio (mean ± St. Dev)” value (“Tumor-to-background ratio” below) in series [1] is 2.26 ± 0.10. In addition, in series [2] (PBS pH 7.4), the “Max Em (emission maximum)” value came out at 805 nm, the “Max Ex (excitation maximum)” value came to 783 nm and the “Φ (absolute fluorescence quantum yield)” value was 6.1%. The “Φ (absolute fluorescence quantum yield)” value in series [2] (setting [8]) came to 7.5%. Further, in series [3], the Kd is 38.2 µM. The “Tumor-to-background ratio” value in series [4] is recorded as 4.20 ± 0.80. For the same compound, the “Residual cell uptake in presence of human serum” value in series [5] came out at 90%. Besides, the IC50 in series [6] came to 1.64 ± 0.41 nM.
Regarding `CC1(C)C(/C=C/C2=C(c3ccc(CCC(=O)NCCCCC4NC(=O)[C@@H](Cc5ccccc5)NC(=O)[C@H](CC(=O)O)NC(=O)CNC(=O)[C@H](CCCNC(=N)N)NC4=O)cc3)C(=C/C=C3/N(CCCCS(=O)(=O)O)c4ccc(C(=O)NCC(O)C(O)C(O)C(O)CO)cc4C3(C)C)/CCC2)=[N+](CCCCS(=O)(=O)[O-])c2ccc(C(=O)NCC(O)C(O)C(O)C(O)CO)cc21` (stereo partly shown) [Compound 1], the “Tumor-to-background ratio” value is on record as 2.27 ± 0.50 in series [1], 6.92 ± 0.64 in series [7] and 4.30 ± 1.50 in series [4]. Moreover, in series [2] (PBS pH 7.4), the “Max Em (emission maximum)” value worked out at 788 nm. Further, in series [2] (PBS pH 7.4), the “Max Ex (excitation maximum)” value was 771 nm. In addition, the entries for the “Φ (absolute fluorescence quantum yield)” value in series [2] (PBS pH 7.4) and in series [2] (setting [8]) were 4.4% and 10.9%, respectively. Moreover, the IC50 in series [6] is 2.73 ± 0.5 nM.
For the compound `CC1(C)C(/C=C/C2=C(Oc3ccccc3)C(=C/C=C3/N(CCCCCC(=O)NCCCCC4NC(=O)[C@@H](Cc5ccccc5)NC(=O)[C@H](CC(=O)O)NC(=O)CNC(=O)[C@H](CCCNC(=N)N)NC4=O)c4ccc(C(=O)NCC(O)C(O)C(O)C(O)CO)cc4C3(C)C)/CCC2)=[N+](CCCCS(=O)(=O)[O-])c2ccc(C(=O)NCC(O)C(O)C(O)C(O)CO)cc21` (stereo partly shown) [Compound 4], the “Tumor-to-background ratio” value in series [7] is reported as 7.64 ± 0.86. In series [2] (PBS pH 7.4), the “Max Em (emission maximum)” value is 803 nm, the “Max Ex (excitation maximum)” value stood at 781 nm and the “Φ (absolute fluorescence quantum yield)” value stood at 5.0%. Besides, the “Φ (absolute fluorescence quantum yield)” value in series [2] (setting [8]) is 9.9%. For the same compound, the Kd in series [3] worked out at 100 µM. Also, the “Residual cell uptake in presence of human serum” value in series [5] was 85%. For the same compound, in series [6], the IC50 came out at 1.84 ± 0.38 nM.
